Assay: soluble on expression in E. coli; label from the status in PepcDB or PDB records

| Sequence | soluble on expression in E. coli |
| --- | --- |
| AAASMDAVTAEKFSPASFLDKKETGVLHFVKYHGLGNDFILVDNRDSSEPKITQEQAAKLCDRNFGVGADGVIFAMPGVNGTDYAMRIFNSDGSEPEMCGNGVRCFARFIAELENLQGKHSFTIHTGAGLIVPEIQDDGQVKVDMGTPILKAQDVPTKLSGNKGEAVVEAELVVDGVSWNVTCVSMGNPHCITFGKKGGPNLKVDDLNLPEIGPKFEHHEMFPARTNTEFVEVLSRSHLKMRVWERGAGATLACGTGACALVVAAVLEGRADRKCTVDLPGGPLEIEWKQEDNHIYMTGPAEAVFYGSALLHHHHHH | soluble |
| AAPTATVTPSSGLSDGTVVKVAGAGLQAGTAYWVAQSAWVDTGVYASNPADISSVTADANGSASTSLTVRRSFEGFLWDGTRWGTVDCTTAACHVTLRDALSNGPEGVAISF | soluble |
| ADAYFYNPITSQRSNFPLSYPMTAKSFMEKHGLLDREEYLKRLAENENNVELVNYPLEKLEFNRRVNKLNVLMISVNNLRADALNQEEMPNLYEFAQQNQNFRKHYSSSNDTYGAFGLFYGLPTSYASSIKAQGASPVLLDVLKDQGYTFGLFSGSGFEDDLYSEIVFRGVNLAEKLDGTQAHTDKQSIADWNMWLTEKANQPWFSYIEVTTVDNFESIPSNSKEDMSASERFKNAYEFAVKSADDKVGGIIKTLEDAQLLANTVVIVTSNHGSEFNETNTNSWGANSNYSRYQLQVPMVIHWPGMMAGEFNHSTSHLDLSVTLLQDMLGVSSNPYDYSSGRNLFDESRRRWILAGDTRELALITNNQTTVIDKFGNYKLYDENYKRMRDETPKLPVLMQGLTELQRFYSKSE | not soluble |
| ADLGHQTLGSNDGWGAYSTGTTGGSKASSSNVYTVSNRNQLVSALGKETNTTPKIIYIKGTIDMNVDDNLKPLGLNDYKDPEYDLDKYLKAYDPSTWGKKEPSGTQEEARARSQKNQKARVMVDIPANTTIVGSGTNAKVVGGNFQIKSDNVIIRNIEFQDAYDYFPQWDPTAGSSGNWASQYDNITINGGTHIWIDHCTFNDGSRPDSTSPKYYGRKYQHHDGQTDASNGANYITMSYNYYHDHDASSIFGSSDSKTSDDGKLKITLHHNRYKNIVQRAPRVRFGQVHVYNNYYEGSTSSSSYPFSYAWGIGKSSKIYAQNNVIDVPGLSAAKTISVFSGGTALYDSGTLLNGTQINASAANGLSSSVGWTPSLHGSIDASANVKSNVINQAGAGKLN | soluble |
| ADTRIGVTIYKYDDNFMSVVRKAIEKDGKSAPDVQLLMNDSQNDQSKQNDQIDVLLAKGVKALAINLVDPAAAGTVIEKARGQNVPVVFFNKEPSRKALDSYDKAYYVGTDSKESGVIQGDLIAKHWQANQGWDLNKDGKIQYVLLKGEPGHPDAEARTTYVVKELNDKGIQTEQLALDTAMWDTAQAKDKMDAWLSGPNANKIEVVIANNDAMAMGAVEALKAHNKSSIPVFGVDALPEALALVKSGAMAGTVLNDANNQAKATFDLAKNLAEGKGAADGTSWKIENKIVRVPYVGVDKDNLSEFTQK | soluble |
| AEASADLRADAMAKDRSEEERTTEAEKNERVQKHLKALTSELANARDESKKTANDMIHAENMRLGRDKYKTLRQIRQGNTKQRIDEFESM | soluble |
| AEEFPVPNGFESAYREVDGVKLHYVKGGQGPLVMLVHGFGQTWYEWHQLMPELAKRFTVIAPDLPGLGQSEPPKTGYSGEQVAVYLHKLARQFSPDRPFDLVAHDIGIWNTYPMVVKNQADIARLVYMEAPIPDARIYRFPAFTAQGESLVWHFSFFAADDRLAETLIAGKERFFLEHFIKSHASNTEVFSERLLDLYARSYAKPHSLNASFEYYRALNESVRQNAELAKTRLQMPTMTLAGGGHGGMGTFQLEQMKAYAEDVEGHVLPGCGHWLPEECAAPMNRLVIDFLSRGRHHHHHH | soluble |
| AEMEVQIVRNDPPLRYDTNLPVDLLHMVYAGRGATGSSGVVFGTWYRTIQDRTITDFPLTTRSADFRDGRMSKTFMTALVLSLQACGRLYVGQRHYSAFECAVLCLYLLYRNTHGAADDSDRAPVTFGDLLGRLPRYLACLAAVIGTEGGRPQYRYRDDKLPKTQFAAGGGRYEHGALASHIVIATLMHHGVLPAAPGDVPRDASTHVNPDGVAHHDDINRAAAAFLSRGHNLFLWEDQTLLRATANTITALGVIQRLLANGNVYADRLNNRLQLGMLIPGAVPSEAIARGASGSDSGAIKSGDNNLEALCANYVLPLYRADPAVELTQLFPGLAALCLDAQAGRPVGSTRRVVDMSSGARQAALVRLTALELINRTRTNPTPVGEVIHAHDALAIQYEQGLGLLAQQARIGLGSNTKRFSAFNVSSDYDMLYFLCLGFIPQYLSAV | soluble |
| AHHHHHHASAKWVCKICGYIYDEDAGDPDNGISPGTKFEELPDDWVCPICGAPKSEFEKLEDGSEKVDRIIQMEIGRINSHLPKARKSLCELLKEDSPSIELRDGSLHYFRRSELEFLKTLAGEEACLVKLPIILELSTLDRGYFVVRGRGEVRVIKKLLELSEDIYLEENTVRLPRYYLPTIRRKLPTTTVYAFITEW | soluble |
| AHHHHHHGSAELKVSAIKEGTVIDHIPAGKGLKVIQILGLGELKNGGAVLLAMNVPSKKLGRKDIVKVEGKFLSEEEVNKIALVAPTATVNIIREYKVVEKFKVEIPDVIEGILKCGNPNCITHYEYVTPKFYVISKEPLKVRCHYCERTMEEEEILANL | soluble |
| AHHHHHHGSARITEEQRRKLAQDALEYHRNNFPGNGKIEVIPKVPLRDFYDLSLAYTPGVAEPCKVIAKKGNYEDYTIIPNTVAVVTDGSAILGLGNIGVLAGMPVMEGKCVLFKALAGIDAFPILIDTQDVEKIVETIKLISKGFGGINLEDISAPRCFEIEMRLKRELDIPVFHDDQHGTAVVTLAGLINALKLVGKKFNEIKVAISGAGAAGIAIAKLLHHVGVKEILLVDRAGIIYEGRKENMNPYKEEVARFNIHGVQGDLAKAMEGADVFIGVSVGGIVKPWMIKKMADDPIVFAMANPIPEIMPEDAKKAGAKIVATGRSDYPNQINNVLGFPGIFRGALDVRATDITLNMNIAAAEAIASVVSDEELSEDYIIPSPLHPDVYPKEARAVAEQAIRDGVARRKLSGEWVEEHTRKLREFYAALIEPLNERRKQYIT | soluble |
| AHHHHHHGSEDIVEALKLAVTNLPEDVALALKNAYEREDYEIAKYNLEIMLRAVKTSKKEKVPLCQDTGTPIFFVETDGTWNVKEIYETIAEAVKRATDEIPLRPNAICLLSGKVVGNVPEIHIEPGKRNRISILIKGGGSENCSALFPLTPGDWFEGVKKKIIDHIRSCGGKPCPPIIVGIGIASPAERAITLAKKSLFRKIGERHEKLGWLEEEILEEINFLDIGPMGLGGKTTALDVKIEVGERHPASFIVGIAIQCWAHRRAFIEEKEDGEVVIWQ | soluble |
| AHHHHHHGSEKALILAEGRYKTTDGKTAHGLVRYSKRFEIVGVIDSTLAGRDAGEILDGIYRGIPIYGSLEEALAEHPDVKYLIIGVATPGGYLPPLYREIIKKAIKKRINIVNGLHNFLSDDPEFSRLAKRYKVQLIDVRKMYRDLKIPFTGKIKEVRAIKIAVLGTDAAIGKRTTAIMLHEAFERFGKKSVFVAMGQTGWMQGAKYCIVMDSIINDFVVGAIEDVIWRAWKEENPDVIVTHGEGSLLHPAYPGGFELIAAGRPDYIILQHAPARKFFDDFPQYEIPPLEKYIQLIELLSGKKPIAITINSEGLTKEEALQKAREIEETYGILTRVPLYEGVDDIVKAILEEVERIKVTVPQEGAVNASQVL | not soluble |
| AHHHHHHGSFKILRKERLAPGINLFEIESPRIAKHAKPGQFVMIRLHEKGERIPLTIADVDISKGSITIVAQEVGKTTRELGTYEAGDYILDVLGPLGKPSHIDYFGTVVMIGGGVGVAEIYPVAKAMKEKGNYVISILGFRTKDLVFWEDKLRSVSDEVIVTTNDGSYGMKGFTTHALQKLIEEGRKIDLVHAVGPAIMMKAVAELTKPYGIKTVASLNPIMVDGTGMCGACRVTVGGEVKFACVDGPEFDAHLVDWDQLMNRLAYYRDLEKISLEKWERERRMV | soluble |
| AHHHHHHGSILLLTGMPGSGKGVVAREFEKRGIPVVSMGDAIREEAEKRGIPKTPEGLKEVSLKVREELGPGAVAILTVPKVRKLLELNPVVVVEGVRSPYEVEEFRKEFKNEEIKVVAIHSSPKSRFQRLLKRQRSDDPKTWEEFVERDRKELNFGIGEVIALADYIIVNECGFDQLKANIEKLISMIFDGKI | soluble |
| AHHHHHHGSKFPKNFMFGYSWSGFQFEMGLPGSEVESDWWVWVHDKENIASGLVSGDLPENGPAYWHLYKQDHDIAEKLGMDCIRGGIEWARIFPKPTFDVKVDVEKDEEGNIISVDVPESTIKELEKIANMEALEHYRKIYSDWKERGKTFILNLYHWPLPLWIHDPIAVRKLGPDRAPAGWLDEKTVVEFVKFAAFVAYHLDDLVDMWSTMNEPNVVYNQGYINLRSGFPPGYLSFEAAEKAKFNLIQAHIGAYDAIKEYSEKSVGVIYAFAWHDPLAEEYKDEVEEIRKKDYEFVTILHSKGKLDWIGVNYYSRLVYGAKDGHLVPLPGYGFMSERGGFAKSGRPASDFGWEMYPEGLENLLKYLNNAYELPMIITENGMADAADRYRPHYLVSHLKAVYNAMKEGADVRGYLHWSLTDNYEWAQGFRMRFGLVYVDFETKKRYLRPSALVFREIATQKEIPEELAHLADLKFVTRK | not soluble |
| AHHHHHHGSKIAIPTNGGGREDTVAPLFARAPAFYIAEVDEKGNIISEKVIQNPAATAGRGAGPIAVQMLINEGVDTIVAPQVVPNALGAIQAAGIRVYYVTPGTPVEEAIKVATTGQGGQLPSLPQIPTPVTPAPAMYGPVYPPFGWGRGWGKGRGWGRGWGSILGYCPWTGMPSRRALRWYYGWW | not soluble |
| AHHHHHHGSKRVNAFNDLKRIGDDKVTAIGMGTWGIGGRETPDYSRDKESIEAIRYGLELGMNLIDTAEFYGAGHAEEIVGEAIKEFEREDIFIVSKVWPTHFGYEEAKKAARASAKRLGTYIDLYLLHWPVDDFKKIEETLHALEDLVDEGVIRYIGVSNFNLELLQRSQEVMRKYEIVANQVKYSVKDRWPETTGLLDYMKREGIALMAYTPLEKGTLARNECLAKIGEKYGKTAAQVALNYLIWEENVVAIPKASNKEHLKENFGAMGWRLSEEDREMARRCV | soluble |
| AHHHHHHGSLVITPRRLHLGIIDPTGSLGRRFGSLGVALEGGYEIRITPADSLKIEAEKEDKETIKETIEKLNFEYDTGFGFYIEVRKSIPRHIGLGSTTQLTLGIAMGILKLLHKDVPVEEVAKILGRGKNSGVGIYAFKYGGFVVDGGVKDSVPPLLVRKDFPEDWAFLLVIPQVKRGFDEKEEQKIMEKPFGSASIAKEISYRILLGLLPALAEKNIEEFGRYLSTIQTLVGSSFSDFQGGEFREDIRLIVEFLNEITYGAGQSSWGPTVYGLIKRAEYQRVASRVAEFLDEQGIKAKIELGIPRNRGAEVKGESLFLERLIKSVSQ | soluble |
| AHHHHHHGSNYRYPPRYGPEWGSGGIYGLRFHNGTLYFTLAFEGEAHFITEDSHKIYEFELVGPRPTSGGDTYNAVEVVDEYIYFGGWVHAPAKYRGKGEGKATIDFSNKYSHVHEYDTENQEVRLVWKESIHHPSEWAGEVSDIIYNPYTDELLLAREDGHTNLGVYSLSRNGRIRLLNDKPSAKGCQMHDLAFFGIGKNYRKGLEEIHALDMITERWEVFPLGESLDGGKYIQPHLGGNGVSVNNRVFAFVRGGVFVGNPHNDEQFAFVRLFDFYTFYAPFRVNALPIGGGILVGFNAHHDAYYRPRTQEEMIYHRFTNTIPGPSVLVYFAPPMVKIVGVFGARITSIEKVDGKILVATNTTPNVGALDATPFDTGNKDIFVLPEKILQEKPPAVSFSVPLAFPSEGKRMGAGVFGGIPLDGYDNARLIIKASRDNRLKVYEYDLALPLRDADVEEFDIKKGRNVIDLRTFSGIVSFELESEDFSGVARIELW | not soluble |
| AHHHHHHGSRMRQEERKFVELVERIMERWGYDRTGGKIYGILLLSNKPLTISELSKITGLSRSSVSVALSKLTREYLVTYTKEKKTKYFYAVPAFLEKFLKQPKEILEREIKPLKEIVVKLAEKSNEEEKARFEAILSDLLTLECVLKKIIELEEKESECLKK | not soluble |

— the DeepSol protein solubility set
